Results published in the supplement of paper PMC10567573.

B1: KRT71 (parent)
chain: ELRNVQDVVEDYKKRYEEEINKRT
B2: RAB11A (parent)
chain: AVPTDEARAFAEKNGLSFIETSAL

Variants of: B1
Assay: protein stability index of a GFP-peptide fusion (GPS, HEK-293T) (PSI 1-6); higher = more stable
Conditions: c terminus: a fixed tail appended
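Further: lentivirally expressed fusions sorted by FACS into six bins by GFP to DsRed ratio, PSI derived from sequencing read proportions per bin multiplied by bin number.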

Protein stability index, by site and new letter:
Y12: W 3.98 | K 3.08 | Q 4.12 | M 4.56 | L 3.22 | E 2.66 | I 3.13 | F 3.85 | P 3.53 | H 4.09 | D 4.2 | T 4.05 | V 4.23 | C 4.07 | S 4.26 | N 4.89 | R 3.66
L2: C 3.53 | P 4.96 | G 5.65 | M 3.99 | A 5.76 | N 5.02 | D 5.94 | S 5.01
E10: Y 3.26 | Q 3.13 | F 4.36 | S 3.65 | K 3.14 | T 4.45 | N 4.22 | A 3.17 | R 4 | M 3.57 | C 3.62 | P 3.41 | H 3.71 | W 2.43 | V 3.11 | I 3.54
E1: H 4.05 | F 4.14 | Q 4.03 | S 4.07 | G 2.72 | N 3.49 | K 3.95 | L 3.9 | C 2.23
D7: H 3.13 | K 3.28 | A 3.68 | V 3.23 | I 2.62 | S 3.6 | Q 4.58 | M 3.35 | Y 3.06 | N 3.36 | L 3.54 | F 3.28 | E 3.1 | C 3.35 | P 3.17
V5: S 4.01 | A 3.8 | Q 4.24 | Y 3.64 | D 4.58 | N 3.59 | H 4.37 | G 3.92 | F 3.38 | K 3.75 | P 5.56 | C 3.98 | E 4.43 | I 3.88 | W 3.7 | R 3.22 | M 3.87
Y16: V 3.76 | N 4.1 | C 3.51 | M 4.22 | E 4.33 | W 2.68 | D 4.38 | K 3.75 | H 3.75 | Q 3.52 | P 3.82 | A 4.43 | R 3.59 | F 2.96 | T 3.89 | G 2.71 | L 4.31
Q6: N 4.58 | T 3.4 | M 3.14 | G 3.36 | Y 3.18 | A 3.85 | C 2.77 | I 2.54 | K 3.75 | F 4.1 | W 3.41 | H 3.15 | S 4.01 | P 4.41
R15: Y 3.43 | L 4.86 | I 4.28 | C 4.23 | P 4.78 | S 3.63 | T 4.68 | A 4.63 | H 2.8 | D 3.35 | K 3.22 | V 3.05 | N 3.48 | W 3.67 | F 3.67 | E 3.49 | M 4.38 | Q 4.26
D11: N 3.63 | Q 4.23 | I 2.82 | T 3.63 | M 3.31 | R 3.29 | F 3.01 | P 3.44 | E 3.5 | C 3.98 | K 2.82 | L 3.95 | A 3.55 | H 3.77 | S 3.69
N4: W 3.17 | E 4.45 | F 3.11 | R 4.48 | A 4.38 | S 4.32 | T 4.08 | K 4.51 | G 3.65 | C 3.9 | D 4.68 | H 4.45 | Y 3.59 | M 3.77 | I 4.37 | P 4.67
V8: I 3.45 | W 3.73 | L 4.3 | Q 4.19 | M 3.23 | D 4.42 | P 3.67 | N 3.38 | G 3.49 | K 3.43 | E 3.98 | A 3.37 | C 3.77 | F 3.97 | S 4.53 | H 2.88
K13: W 3.34 | H 3.73 | G 3.93 | Y 3.2 | R 4.62 | M 3.12 | Q 3.71 | C 2.71 | V 3.25 | P 2.97 | S 3.51 | I 3.27 | F 4.07 | E 4.74 | N 3.34 | A 4.07
K14: A 3.17 | T 3.65 | R 3.51 | N 3.58 | Q 3.49 | M 3.82 | H 4.26 | V 4.45 | L 2.97 | E 4.51 | Y 3.47 | C 3.3 | G 4.76
V9: F 3.49 | Y 3.62 | N 3.24 | I 3.74 | A 3.69 | H 4.4 | E 4.64 | Q 3.66 | K 3.48 | P 4.21 | S 4.35 | T 3.73 | R 2.95 | W 4.36 | L 3.03 | G 4.2 | D 4.93
R3: H 2.78 | E 4.15 | P 4.1 | F 4.32 | T 3.35 | L 2.37 | Q 4.13 | W 3.47 | M 4.14 | Y 3.86

Variants of: B2
Assay: as above
Conditions: c terminus: a fixed tail appended

Protein stability index of substitutions, site by site:
E20: C 2.01 | M 1.81 | A 2.27
T4: S 2.23 | G 2.52 | N 2.22
A7: L 2.28 | D 2.99 | S 2.68 | H 2.43 | C 1.83
K13: H 1.77 | A 2.57 | C 2.38 | F 2.24
G15: W 2.3
F18: P 4.68 | A 4.62 | K 4.2 | E 4.57 | S 4.62 | V 4.35
A23: G 3.49 | I 1.65 | Q 2.52 | S 2.79 | H 2.04 | T 2.08
P3: W 2.08 | G 2.41 | K 2.55 | A 2.61 | F 2.23 | Q 2.78 | D 3.01
E12: L 1.75 | V 2.3 | H 1.96 | M 1.54 | A 2.07
V2: P 2.98 | L 2.48 | N 2.52
D5: Y 2.15 | K 1.79 | V 2.05 | C 1.89 | N 1.95
F10: S 2.84 | A 2.76 | C 2.43 | H 2.54
R8: W 2.46 | E 3.25
L16: G 4.35 | T 4.14 | Q 4.2 | S 4.35 | C 3.66
I19: S 4.41
E6: S 2.09 | Y 1.88 | V 1.83 | G 1.87 | C 2.13 | K 1.8
T21: L 2.46 | K 3.37 | G 1.78
A9: H 1.97 | D 2.78 | G 2.57 | T 2.96 | M 2.35 | L 2.45
N14: F 2.25 | I 2.13 | M 1.92 | V 1.85 | Y 2.17
A11: H 2.64 | I 1.91 | F 1.94 | C 2.32
S17: H 3.19 | A 2.53 | T 3.36 | G 3.53 | R 3.08 | F 2.62 | Y 2.97
A1: K 2.8 | T 2.55 | I 2.57
S22: Q 3.14 | D 3.84
L24: T 3.98 | S 4.39 | G 5.05 | D 4.79
